Test [1] has as its target FcγRs on human neutrophils and peripheral blood monocytes.
In test [2] the target is FPR on human neutrophils and monocytes (human, UniProt P21462). The experiment in a line: cell-based or functional assay.

B1: FLIPr-like (other)
chain: FFSYEWKGLEIAKNLADQAKKDDERADKLIKEADEKNEHYKGKTVEDLYVIAKKMGKGNTIAVVKIKDGGKNGYYTFDITRPLEEHRKNIPVVKNGEIDSITWY
modifications: FITC label in the flow cytometric binding assays (FLIPr-like-FITC); unlabelled elsewhere
Molecule B1 had a minimal effective concentration in phagocytosis by human neutrophils in test [1] of 0.19 µg/mL. The “FPR blocking activity (fMLF-induced activation of neutrophils)” value in test [2] is roughly 100 fold.

Values taken from patent publication US20090264359A1, “FPLR-1 INHIBITORS FOR USE IN DISEASES INVOLVING AMYLOID-INDUCED INFLAMMATORY EVENTS (FLIPR AND FLIPR-LIKE) AND IMMUNECOMPLEX-[…] DISEASES” (published 2009).
